The values below come from article doi:10.1101/497123 (2018).

A word on the Kd: it is the concentration at which binding is half-saturated. The low end stands for higher affinity, the high end for lower affinity. The koff is the first-order rate constant of dissociation. High values mean fast dissociation, low ones slow dissociation.

Experiment in all cases: BLI
In assay [1] the target is T1, full length H7 HA trimer (influenza A virus, subtype H7 (strain …)).
In assay [2] the target is T1, full length H7 HA trimer. This is another data set of the same source.
In assay [3] the target is m13.
For assay [4], the target named is m14.
Assay [5] has as its target m9.
The target of assay [6] is m12.
Assay [7] deals with m15.
In assay [8] the target is m11.

B1: CT149 Fab (Fab, V domains shown)
VH: QVQLVQSGAEVKKPGASVKVSCKTSGYSFSTYGVSWVRQAPGQGPEWVGWISAYTGITDYAQKFQGRVTLTTDATTATAFLDLRSLRPDDTATYFCARDKVQGRVEVGSGGRHDYWGQGTLVIVSS
VL: EVVLTQSPGTLALPPGERATLSCRASHRVGSTYIAWYQQKSGQAPRRLIYGASNRATDIPDRFSGSGSGTDFTLTIRRLEPEDSAVYYCQQFSVSPWTFGQGTRVEIK
As to B1, the Kd in assay [1] is 3.7 nM; in assay [3], 2.7 nM; in assay [4] it was 7.2 nM; in assay [5], 7 nM; in assay [6] it was 8.2 nM; in assay [7], 9.8 nM. Also, in assay [8], the equilibrium dissociation constant (Kd) stood at 9 nM. In addition, the dissociation rate constant (koff) in assay [2] came out at 0.0031 s⁻¹; in assay [3] it was 0.0018 s⁻¹; in assay [4] it was 0.0029 s⁻¹; in assay [5] it was 0.003 s⁻¹; in assay [6], 0.003 s⁻¹; in assay [7], 0.0034 s⁻¹. The koff in assay [8] turned out to be 0.0033 s⁻¹.
